No end group written: not given here. *: point of attachment. 125I = [125I]*
Molecular target: cell surface binding site for EMAP II N-terminal peptides on human mononuclear phagocytes (MPs); ≈73 kDa MP surface polypeptide
Experiment: radioligand binding on human MPs, 4 C, one-site model

- Kd: 0.19 nM
- N (molecules of peptide bound per cell) (molecules of peptide bound per cell): 8300
Binder: RIGRIVTAKY(125I) [^125I-…]
